Experimental data reported in the supplement of paper PMC9112550, “Optimization of the antimicrobial peptide Bac7 by deep mutational scanning” (BMC Biology, 2022).

tested on: Escherichia coli TOP10; test: shrunken log2 fold change of peptide-encoding DNA abundance (4.5 h post-induction vs induction); higher = less antimicrobial activity (less host growth inhibition); details: time post-induction: 4.5 h; library: site-saturation at positions 5, 18, 19, 20
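Also: peptides expressed intracellularly from a pBAD plasmid library in pooled LB shake-flask culture, induced with 0.3% L-arabinose, DNA abundance read by NGS, three biological replicates, DESeq2 with apeglm shrinkage.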

Point of comparison: RRIRWRPPRLPRPRPRPMAEPRP, “shrunken log2 fold change” value 0.203. Against it:
- RRIRMRPPRLPRPRPRPCIWPRP — within 0.2 log units, 0.0563
- RRIRSRPPRLPRPRPRPDRVPRP — lower, -0.144
- RRIRYRPPRLPRPRPRPVHQPRP — lower, -0.0229
- RRIRIRPPRLPRPRPRPPNNPRP — lower, -0.637
- RRIRKRPPRLPRPRPRPWFGPRP — within 0.2 log units, 0.0558
- RRIRDRPPRLPRPRPRPGEFPRP — lower, -0.117
- RRIRRRPPRLPRPRPRPTFCPRP — within 0.2 log units, 0.0676
- RRIRFRPPRLPRPRPRPVGWPRP — higher, 0.62
- RRIRRRPPRLPRPRPRPWPNPRP — lower, -0.0193
- RRIRLRPPRLPRPRPRPFWNPRP — lower, -0.275
- RRIRWRPPRLPRPRPRPAFKPRP — lower, -0.00397
- RRIRHRPPRLPRPRPRPQDSPRP — lower, -0.00865
- RRIRHRPPRLPRPRPRPNMGPRP — lower, -0.0579
- RRIRHRPPRLPRPRPRPFRPPRP — lower, -0.188
- RRIRWRPPRLPRPRPRPVDCPRP — within 0.2 log units, 0.00927
- RRIRQRPPRLPRPRPRPEMDPRP — within 0.2 log units, 0.231
- RRIRRRPPRLPRPRPRPRCNPRP — lower, -0.223
- RRIRCRPPRLPRPRPRPGMWPRP — within 0.2 log units, 0.211
- RRIRGRPPRLPRPRPRPHLYPRP — within 0.2 log units, 0.155
- RRIRYRPPRLPRPRPRPAAIPRP — lower, -0.092
- RRIRLRPPRLPRPRPRPYPQPRP — lower, -0.364
- RRIRMRPPRLPRPRPRPTNRPRP — within 0.2 log units, 0.282
- RRIRWRPPRLPRPRPRPKHQPRP — within 0.2 log units, 0.195
- RRIRLRPPRLPRPRPRPNWGPRP — within 0.2 log units, 0.00356
- RRIRERPPRLPRPRPRPTVTPRP — within 0.2 log units, 0.0913
- RRIRRRPPRLPRPRPRPGNSPRP — within 0.2 log units, 0.119
- RRIRLRPPRLPRPRPRPQTKPRP — lower, -0.201
- RRIRNRPPRLPRPRPRPLWPPRP — within 0.2 log units, 0.14
- RRIRPRPPRLPRPRPRPYSCPRP — lower, -0.183
- RRIRKRPPRLPRPRPRPYWKPRP — within 0.2 log units, 0.0282
- RRIRLRPPRLPRPRPRPAEHPRP — within 0.2 log units, 0.141
- RRIRPRPPRLPRPRPRPHITPRP — lower, -0.759
- RRIRTRPPRLPRPRPRPMFVPRP — lower, -0.215
- RRIRARPPRLPRPRPRPALFPRP — higher, 0.61
- RRIRFRPPRLPRPRPRPDHMPRP — lower, -0.585
- RRIRVRPPRLPRPRPRPALMPRP — within 0.2 log units, 0.193
- RRIRHRPPRLPRPRPRPTHFPRP — within 0.2 log units, 0.176
- RRIRGRPPRLPRPRPRPEWKPRP — higher, 1.3
- RRIRGRPPRLPRPRPRPFFCPRP — higher, 0.471
- RRIRRRPPRLPRPRPRPCPDPRP — lower, -0.0762
- RRIRERPPRLPRPRPRPVPVPRP — within 0.2 log units, 0.0913
- RRIRARPPRLPRPRPRPTWWPRP — higher, 0.568
- RRIRRRPPRLPRPRPRPGCNPRP — within 0.2 log units, 0.327
- RRIRGRPPRLPRPRPRPGDGPRP — higher, 0.895
- RRIRRRPPRLPRPRPRPNDSPRP — lower, -0.286
- RRIRLRPPRLPRPRPRPCYWPRP — lower, -0.317
- RRIRGRPPRLPRPRPRPFRRPRP — within 0.2 log units, 0.234
- RRIRGRPPRLPRPRPRPYMVPRP — lower, -0.296
- RRIRQRPPRLPRPRPRPSQQPRP — within 0.2 log units, 0.0129
- RRIRVRPPRLPRPRPRPAQFPRP — within 0.2 log units, 0.341
- RRIRNRPPRLPRPRPRPGTTPRP — within 0.2 log units, 0.0321
- RRIRQRPPRLPRPRPRPVGAPRP — higher, 0.489
- RRIRHRPPRLPRPRPRPASTPRP — lower, -0.357
- RRIRGRPPRLPRPRPRPKFCPRP — within 0.2 log units, 0.23
- RRIRGRPPRLPRPRPRPRQKPRP — higher, 1.43
- RRIRIRPPRLPRPRPRPLASPRP — within 0.2 log units, 0.0396
- RRIRRRPPRLPRPRPRPPNLPRP — higher, 0.593
- RRIRFRPPRLPRPRPRPVAKPRP — lower, -0.0163
- RRIRMRPPRLPRPRPRPFFAPRP — higher, 0.445
- RRIRLRPPRLPRPRPRPCAKPRP — within 0.2 log units, 0.132
- RRIRWRPPRLPRPRPRPNASPRP — within 0.2 log units, 0.267
- RRIRWRPPRLPRPRPRPCCWPRP — higher, 0.438
- RRIRTRPPRLPRPRPRPDQVPRP — lower, -0.272
- RRIRARPPRLPRPRPRPMSKPRP — within 0.2 log units, 0.16
- RRIRCRPPRLPRPRPRPKKRPRP — within 0.2 log units, 0.156
- RRIRKRPPRLPRPRPRPYSHPRP — lower, -0.134
- RRIRPRPPRLPRPRPRPKFMPRP — lower, -0.171
- RRIRPRPPRLPRPRPRPKPGPRP — higher, 0.684
- RRIRMRPPRLPRPRPRPGGYPRP — within 0.2 log units, 0.0413
- RRIRGRPPRLPRPRPRPAVHPRP — higher, 0.536
- RRIRMRPPRLPRPRPRPCQTPRP — within 0.2 log units, 0.0245
- RRIRYRPPRLPRPRPRPSMYPRP — lower, -0.418
- RRIRVRPPRLPRPRPRPCTCPRP — lower, -0.00748
- RRIRTRPPRLPRPRPRPTIDPRP — lower, -0.319
